# T1: MmLARK (Mus musculus, UniProt Q8C7Q4 1-361)
# T1 sequence: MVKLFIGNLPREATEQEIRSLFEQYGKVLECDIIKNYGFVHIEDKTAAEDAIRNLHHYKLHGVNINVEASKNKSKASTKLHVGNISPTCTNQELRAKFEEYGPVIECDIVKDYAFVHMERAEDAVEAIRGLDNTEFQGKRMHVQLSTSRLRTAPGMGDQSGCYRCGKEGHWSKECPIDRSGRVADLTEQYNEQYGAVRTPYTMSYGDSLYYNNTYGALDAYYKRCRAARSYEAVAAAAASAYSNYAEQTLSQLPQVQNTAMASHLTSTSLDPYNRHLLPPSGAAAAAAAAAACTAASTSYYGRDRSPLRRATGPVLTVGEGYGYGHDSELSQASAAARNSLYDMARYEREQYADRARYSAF
# Biological target: T2, BmLARK (Bombyx mori (cDNA from Bm12 cells), UniProt Q5I7M6 1-343)
# Experiment: MST
row,Binder,Kd [nM]
1,TTATGGGGAGGGTGGGGAGGGTGGGGAAGG (structured_DNA) [c-MYC G4],269
2,TTTTTCGGGCGGGCGCGAGGGAGGGG (structured_DNA) [c-kit G4],126
3,GCGAGGGCGGGGGAGAGGGGAGGGGCGCG (structured_DNA) [HIF-1a G4],131
4,CCAGTGCGGGGCGCGAGGGGGCCGAGGGGCGGGGCAACAA (structured_DNA) [BmPOUM2 G4],111
5,GGGTCGCGGGGCCACGGGGGGCGGGGCGGGGGCCGCG (structured_DNA) [142 G4],107
6,GGTACGGGGGTGCAGGGGCGGCGGGGGGCGCGGGGTGG (structured_DNA) [558 G4],120
7,GGCGGGGGCGGGGGGACGGGGCGGGGGGGGCGG (structured_DNA) [159 G4],114

# Biological target: T1, MmLARK
# Experiment: EMSA
row,Binder,binding result
1,TTATGGGGAGGGTGGGGAGGGTGGGGAAGG (structured_DNA) [c-MYC G4],binds
2,TTTTTCGGGCGGGCGCGAGGGAGGGG (structured_DNA) [c-kit G4],binds
3,CCAGTGCGGGGCGCGAGGGGGCCGAGGGGCGGGGCAACAA (structured_DNA) [BmPOUM2 G4],binds

# Biological target: DmLARK (Drosophila melanogaster, UniProt Q94901 1-352)
# Sequence (Q94901 whole entry): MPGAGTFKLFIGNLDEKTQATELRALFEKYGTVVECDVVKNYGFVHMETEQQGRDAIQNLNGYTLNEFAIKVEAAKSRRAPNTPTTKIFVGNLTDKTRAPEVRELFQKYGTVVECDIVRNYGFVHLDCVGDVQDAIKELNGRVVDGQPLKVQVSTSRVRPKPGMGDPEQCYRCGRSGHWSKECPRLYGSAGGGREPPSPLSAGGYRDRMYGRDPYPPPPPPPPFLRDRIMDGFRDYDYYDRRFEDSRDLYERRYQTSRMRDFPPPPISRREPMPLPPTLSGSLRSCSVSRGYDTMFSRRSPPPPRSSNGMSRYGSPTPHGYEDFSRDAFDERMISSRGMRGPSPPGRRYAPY
# Experiment: EMSA
row,Binder,binding result
1,CCAGTGCGGGGCGCGAGGGGGCCGAGGGGCGGGGCAACAA (structured_DNA) [BmPOUM2 G4],binds

# Biological target: HsLARK (Homo sapiens, UniProt Q9BWF3 1-364)
# Experiment: EMSA
row,Binder,binding result
1,TTATGGGGAGGGTGGGGAGGGTGGGGAAGG (structured_DNA) [c-MYC G4],binds
2,TTTTTCGGGCGGGCGCGAGGGAGGGG (structured_DNA) [c-kit G4],binds
3,CCAGTGCGGGGCGCGAGGGGGCCGAGGGGCGGGGCAACAA (structured_DNA) [BmPOUM2 G4],binds

# Biological target: T2, BmLARK
# Experiment: EMSA
row,Binder,binding result
1,GGCAGTGTCAGTGAGACAGAGCAGTGTGTGCGG (ssDNA) [159 ssDNA (mutant G4)],no binding
2,CCAGTGCGATGCGCGAGTGAGCCGAGTAGCAGTGCAACAA (ssDNA) [BmPOUM2 ssDNA (mutant G4)],no binding
3,GGTACTGTGATGCAAGTGCGGCAGTGAGCGCAGTGTGG (ssDNA) [558 ssDNA (mutant G4)],no binding
4,GTGTCGCAGTGCCACAGTGTGCTGAGCAGTGTCCGCG (ssDNA) [142 ssDNA (mutant G4)],no binding

# Biological target: BmLARK ZnF (Bombyx mori, UniProt Q5I7M6 155-343)
# Experiment: EMSA
row,Binder,binding result
1,CCAGTGCGGGGCGCGAGGGGGCCGAGGGGCGGGGCAACAA (structured_DNA) [BmPOUM2 G4],no binding
